Assay results reported in PMC3042717.

Target: GST-VP16 (aa 452-490) (herpes simplex virus) (UniProt P06492)
Assay: pull-down

Sequence of UniProt P06492 (P06492 452-490): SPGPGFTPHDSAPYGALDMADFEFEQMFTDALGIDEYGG

How did the fold more efficient pull-down than of p300ΔC turn out when “wild-type p300 over-expressed in A293 cells, Q09472 1-2414” was run?
Its fold more efficient pull-down than of p300ΔC is 5 fold.
